In general, Kd refers to the free concentration of one partner at which half of the binding sites on the other are occupied at equilibrium, for simple one-to-one binding. A low value points to a tighter complex.

Experimental findings from patent US20220002344A1 are described below.

For test [1], the target named is E. coli 70S ribosome particle (E. coli). As to the kind of experiment: ITC, 30 °C, E. coli ribosome. (In general: ITC needs no label: the signal is the heat of the interaction.)
For test [2] the target is unchanged. As to the kind of experiment: ITC, 30 °C, peptide titrated into E. coli 70S ribosome.
The target in test [3] is E. coli sliding clamp (DnaN protein, β subunit of DNA polymerase III) (E. coli) (UniProt P0A988). As to the kind of experiment: cell-based or functional assay.

Square brackets hold non-standard residues; d marks the D form. Primed or numbered codes have the meaning given here. Ends that are not written are not given here. FITC′ = fluorescein isothiocyanate label; Cha = N[C@@H](CC1CCCCC1)C(=O)O

Sequence of E. coli sliding clamp (DnaN protein, β subunit of DNA polymerase III) (E. coli) (P0A988 whole entry): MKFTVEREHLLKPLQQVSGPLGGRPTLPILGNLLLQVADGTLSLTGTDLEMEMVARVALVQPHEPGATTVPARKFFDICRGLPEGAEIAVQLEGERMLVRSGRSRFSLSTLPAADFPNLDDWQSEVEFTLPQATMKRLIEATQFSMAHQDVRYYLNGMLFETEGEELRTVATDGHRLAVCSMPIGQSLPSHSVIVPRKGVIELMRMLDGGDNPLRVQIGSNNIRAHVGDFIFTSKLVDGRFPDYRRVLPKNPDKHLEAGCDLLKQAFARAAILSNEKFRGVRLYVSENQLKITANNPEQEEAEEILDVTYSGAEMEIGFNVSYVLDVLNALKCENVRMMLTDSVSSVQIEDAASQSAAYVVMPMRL

Turning to {FITC′}-VDKPPYLPRPRPPR[dR]IYN[dR]-NH2 (not fully specified) [CA3-124 (FITC-Onc112), FITC-…rIYNr-NH2], in test [1], the Kd worked out at 7.7 µM, the ΔG is -29.7 kJ/mol and the ΔH was -94.6 kJ/mol.
In test [2], VDKGSYLPRPTPPRPIYNRNGPR[Cha]FQLD-OH [P188 (Py-P7Scr), …haGQLD-OH] yielded a -TΔS of 23 kJ/mol, a Kd of 0.0758 µM, a ΔG of -41.4 kJ/mol and a ΔH of -64.4 kJ/mol.
Turning to {FITC′}-KVDKPPYLPRPRPPR[dR]IYN[dR]GPRQ[Cha]DLF-OH (not fully specified) [CM1-92 (FITC-Onc112-P7), FITC-K-…rIYNrGPRQChaDLF-OH], in test [3], the MIC (µM), E. coli ATCC 25922, Mueller-Hinton broth came out at 16 µM.
